From PMC4380364 come the findings set out here.

Data set [1] deals with T1, L-selectin (cell surface, Jurkat T lymphocytes) (Homo sapiens?) (UniProt P14151).
T1 sequence: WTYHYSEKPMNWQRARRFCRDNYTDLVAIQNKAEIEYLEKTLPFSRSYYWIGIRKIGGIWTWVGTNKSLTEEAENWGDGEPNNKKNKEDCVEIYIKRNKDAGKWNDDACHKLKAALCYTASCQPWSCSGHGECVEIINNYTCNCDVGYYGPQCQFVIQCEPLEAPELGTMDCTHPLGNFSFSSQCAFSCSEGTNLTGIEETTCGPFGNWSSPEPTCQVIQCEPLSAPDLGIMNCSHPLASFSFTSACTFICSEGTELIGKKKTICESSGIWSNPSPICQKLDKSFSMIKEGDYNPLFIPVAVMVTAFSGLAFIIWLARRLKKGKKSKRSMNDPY
The experiment in a line: competition (flow cytometry). As to conditions: vs 100 nM FITC-DREG56 antibody, 4°C, Jurkat cells, competition with 100 nM FITC-DREG56 for 35 min at 4°C, washed in PBS, 2% PFA fix, SLeX assay in PBS with 1% human serum albumin …. A general note: In flow cytometry, cells or beads pass a laser one at a time.

Data set [2] has as its target T1, L-selectin (cell surface, Jurkat T lymphocytes). Description: flow cytometry titration. As to conditions: FITC-labeled, Jurkat cells, competition with 100 nM FITC-DREG56 for 35 min at 4°C, washed in PBS, 2% PFA fix, SLeX assay in PBS with 1% human serum albumin …, scale: apparent affinity relative to LS-Multi-Aptamer.

“TAGCCAAGGTAACCAGTACAAGGTGCTAAACGTAATGGCTTCGGCTTAC [LS-Aptamer (monovalent)]”: the IC50 (in general, the concentration needed to halve the response being measured) in data set [1] is greater than 1000 nM. Further, in data set [2], the binding signal turned out to be 0.001.
